Patent US7271172B2, “Pyrrolidine and azetidine compounds as CCR5 antagonists” (SmithKline Beecham Corporation, priority 2002, dated 2007)

Target: T1, human CCR5 chemokine receptor (Homo sapiens, UniProt P51681)
T1 construct: host or cells: Chinese Hamster Ovary (CHO) cells; membranes prepared from the cell pellet
Test: CC-Chemokine Receptor-5 Binding by Scintillation Proximity Assay (CCR5 SPA), displacement of [125I]MIP1α
Settings: standard compound, 14-point concentration-response curve in triplicate, starting concentration 1 μM
Method: CC-Chemokine Receptor-5 Binding by Scintillation Proximity Assay (CCR5 SPA) Scintillation Proximity Assay for the Human CC-Chemokine Receptor, CCR-5
This protocol describes a high-throughput screen using SPA binding to identify compounds that inhibit binding of ^125-MIP1α to the human CCR5 chemokine receptor.
Human CCR5 receptors were expressed in Chinese Hamster Ovary (CHO) cells, registration # 12025. Cells were grown in suspension and a 50 to 80 ml CCR5 cell pellet was prepared. […]
The saturation curve binding experiment is performed by adding varying amounts of [^125I]MIP1α (0-8.5 nM to membranes and beads in concentrations chosen from the optimal protein/bead ratio. The data is analyzed using a non-linear curve-fitting program. The Kd and Bmax are derived from the curve. […]

T1 sequence (P51681 whole entry): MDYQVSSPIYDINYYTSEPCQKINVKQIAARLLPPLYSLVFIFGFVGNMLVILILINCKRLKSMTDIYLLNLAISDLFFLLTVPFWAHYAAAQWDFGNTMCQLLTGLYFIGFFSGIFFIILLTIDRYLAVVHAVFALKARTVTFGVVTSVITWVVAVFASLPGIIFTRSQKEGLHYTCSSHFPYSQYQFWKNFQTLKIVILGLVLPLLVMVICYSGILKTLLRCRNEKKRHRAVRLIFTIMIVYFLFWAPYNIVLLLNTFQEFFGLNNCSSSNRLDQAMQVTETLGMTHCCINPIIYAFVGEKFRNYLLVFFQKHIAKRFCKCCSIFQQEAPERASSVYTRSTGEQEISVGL

With “MIP1α: natural chemokine ligand of CCR5; standard compound of the CCR5 SPA binding assay” the “average historical pKi” value was 7.6.
